According to patent US20210246206A1 (Stanford University, published 2021):

B1: chimeric 8B6 antibody (antibody, V domains shown)
VH: EVQLQQSGPELVKPGASVKMSCKASGYTFTTYVVHWVKQTPGQGLEWIGYINPYNDGTKYNEKFKGKATLTSDKSSSTAYMEFSSLTSEDSAVYYCVRGYYRYGYTMDYWGQGTSVTVSS
VL: DIVMTQSPATLSVTPGDRVSLSCRASQNFSDYLHWYQQKSHESPRLLIKYVSHSISGIPSRFSGSGSGSDFTLSINSVEPEDVGVYYCQNGHSFPPTFGGGTKLEIK
notes: Mouse 8B6 variable regions in a chimeric native IgG; detection was with anti-human kappa
B2: chimeric 5F9 antibody (antibody, V domains shown)
VH: QVQLQQPGAELVKPGASVMMSCKASGYTFTNYNMHWVKQTPGQGLEWIGTIYPGNDDTSYNQKFKDKATLTADKSSSAAYMQLSSLTSEDSAVYYCARGGYRAMDYWGQGTSVTVSS
VL: DVLMTQTPLSLPVSLGDQASISCRSSQSIVYSNGNTYLGWYLQKPGQSPKLLIYKVSNRFSGVPDRFSGSGSGTDFTLKISRVEAEDLGVYHCFQGSHVPYTFGGGTKVEIK
notes: Mouse 5F9 variable regions in a chimeric native IgG; detection was with anti-human kappa

Target: T1, purified human CD47-Fc fusion protein (human, UniProt Q08722 19-139, limits assumed)
T1 construct: Coated on ELISA plates at 1.0 ug/ml; also called soluble CD47; human CD47 soluble protein; not shown: Fc part
Assay: ELISA on coated human CD47 soluble protein (FIG. 11)

T1 sequence (Q08722 19-139 limits assumed): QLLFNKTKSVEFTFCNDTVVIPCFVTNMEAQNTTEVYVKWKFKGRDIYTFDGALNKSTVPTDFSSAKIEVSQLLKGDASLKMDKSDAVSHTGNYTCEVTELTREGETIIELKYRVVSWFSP

Row | Binder | binding result
1 | B1 | binds
2 | B2 | binds
